Measurements taken from US20220088148A1 (HANMI PHARM, published 2022).
Bridges are numbered along the chain shown (N, C = ends). Where no end group is shown, it is not given here. [ ]: non-standard residue; d: D form. The star is where a group is joined. Acetyl(2-(4-imidazolyl)) = O=C(Cc1c[nH]cn1)*; Aib = CC(C)(N)C(=O)O

T1: human GIP receptor (human, UniProt P48546 22-466)
T1 sequence (looked up): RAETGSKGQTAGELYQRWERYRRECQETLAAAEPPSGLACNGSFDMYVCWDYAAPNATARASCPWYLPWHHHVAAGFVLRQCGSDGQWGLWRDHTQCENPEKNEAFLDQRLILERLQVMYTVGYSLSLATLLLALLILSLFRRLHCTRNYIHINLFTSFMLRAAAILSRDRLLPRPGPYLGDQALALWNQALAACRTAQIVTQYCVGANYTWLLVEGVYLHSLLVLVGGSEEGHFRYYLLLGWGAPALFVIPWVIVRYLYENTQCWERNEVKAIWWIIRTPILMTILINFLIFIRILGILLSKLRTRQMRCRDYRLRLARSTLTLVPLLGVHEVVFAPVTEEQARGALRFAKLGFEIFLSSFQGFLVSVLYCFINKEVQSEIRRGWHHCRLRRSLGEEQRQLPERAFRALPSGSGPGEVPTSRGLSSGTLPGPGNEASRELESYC


target: human GLP-1 receptor (human, UniProt P43220 24-463); assay: cell-based or functional assay

Row | Binder | In vitro activity (%) vs. GLP-1, cAMP EC50 [%]
1 | H[Aib]QGTFTSDVSSYLLGQQQKEFIAWLVKGC [triple agonist of SEQ ID NO: 4] | 8.5
2 | H[Aib]QGTFTSDVSSYLLGQQQKEFIAWLVKGGGPSSGAPPPSC [triple agonist of SEQ ID NO: 5] | 42.1
3 | H[Aib]QGTFTSDYSIAMDEIHQKDFVNWLLNTC (bridge 16-20; ends not checked) [triple agonist of SEQ ID NO: 57] | 11.7
4 | Y[Aib]QGTFTSDYSKYLDECRAKDFVQWLLDHHPSSGQPPPS (bridge 16-20; ends not checked) [triple agonist of SEQ ID NO: 66] | 15.8
5 | H[Aib]QGTFTSDYSKCLDEKRAKEFVQWLLDHHPSSGQPPPS (bridge 16-20; ends not checked) [triple agonist of SEQ ID NO: 65] | 95.4
6 | Y[Aib]QGTFTSDYSKCLDEKAAKEFVQWLLDHHPSSGQPPPS (bridge 16-20; ends not checked) [triple agonist of SEQ ID NO: 68] | 27.9
7 | H[Aib]QGTFTSDVSSYLDGQAAKEFVAWLLKGC (ends and bridges not checked) [triple agonist of SEQ ID NO: 6] | 17
8 | Y[Aib]QGTFTSDYSKYLDEKRAKEFVQWLLDHHCSSGQPPPS (bridge 16-20) [triple agonist of SEQ ID NO: 43] | 12.6
9 | [Acetyl(2-(4-imidazolyl))][Aib]QGTFTSDYSIAMDEKHCKDFVNWLLNTK (bridge 16-20; ends not checked) [triple agonist of SEQ ID NO: 60] | 106
10 | H[Aib]QGTFTSDYSKYLDEKRQKEFVQWLLDTC (bridge 16-20; ends not checked) [triple agonist of SEQ ID NO: 52] | 44.1
11 | Y[Aib]QGTFTSDYSKYLDEKRAKEFVQWLLDHHPSSGQPPPSC (bridge 16-20) [triple agonist of SEQ ID NO: 42] | 33.9
12 | H[Aib]QGTFTSDVSKYLDGQAAKEFVAWLLKGC (ends and bridges not checked) [triple agonist of SEQ ID NO: 7] | 13.7
13 | [Acetyl(2-(4-imidazolyl))][Aib]QGTFTSDYSIAMDEIACKDFVNWLLNTK (bridge 16-20; ends not checked) [triple agonist of SEQ ID NO: 61] | 59.8
14 | H[Aib]QGTFTSDVSSYLDGQAAKEFIAWLVKGC [triple agonist of SEQ ID NO: 1] | 3.2
15 | H[Aib]QGTFTSDYSKYLDEKRQKEFVQWLLNTKC (bridge 16-20; ends not checked) [triple agonist of SEQ ID NO: 58] | 39.1
16 | H[Aib]EGTFTSDYSIAMDEIHQKDFVNWLLAQC (bridge 16-20) [triple agonist of SEQ ID NO: 53] | 161

target: human GCG receptor (human, UniProt P47871 26-477); assay: cell-based or functional assay
Sequence (P47871 26-477): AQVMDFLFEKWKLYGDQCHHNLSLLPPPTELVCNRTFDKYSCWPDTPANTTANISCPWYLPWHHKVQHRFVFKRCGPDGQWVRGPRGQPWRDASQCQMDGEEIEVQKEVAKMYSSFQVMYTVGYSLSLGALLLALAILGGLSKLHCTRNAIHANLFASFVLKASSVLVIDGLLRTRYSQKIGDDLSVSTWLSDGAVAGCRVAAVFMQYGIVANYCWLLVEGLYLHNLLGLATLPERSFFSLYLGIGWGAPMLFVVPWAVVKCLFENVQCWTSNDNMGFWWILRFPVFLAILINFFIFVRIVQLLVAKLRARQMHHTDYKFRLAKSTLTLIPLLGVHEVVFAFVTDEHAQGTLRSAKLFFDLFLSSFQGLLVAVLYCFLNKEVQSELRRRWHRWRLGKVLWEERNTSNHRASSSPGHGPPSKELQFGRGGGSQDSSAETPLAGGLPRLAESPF

Row | Binder | In vitro activity (%) vs. Glucagon, cAMP EC50 [%]
17 | H[Aib]QGTFTSDVSSYLLGQQQKEFIAWLVKGC [triple agonist of SEQ ID NO: 4] | < 0.1
18 | H[Aib]QGTFTSDVSSYLLGQQQKEFIAWLVKGGGPSSGAPPPSC [triple agonist of SEQ ID NO: 5] | < 0.1
19 | H[Aib]QGTFTSDYSIAMDEIHQKDFVNWLLNTC (bridge 16-20; ends not checked) [triple agonist of SEQ ID NO: 57] | < 0.1
20 | Y[Aib]QGTFTSDYSKYLDECRAKDFVQWLLDHHPSSGQPPPS (bridge 16-20; ends not checked) [triple agonist of SEQ ID NO: 66] | 172
21 | H[Aib]QGTFTSDYSKCLDEKRAKEFVQWLLDHHPSSGQPPPS (bridge 16-20; ends not checked) [triple agonist of SEQ ID NO: 65] | 25.2
22 | Y[Aib]QGTFTSDYSKCLDEKAAKEFVQWLLDHHPSSGQPPPS (bridge 16-20; ends not checked) [triple agonist of SEQ ID NO: 68] | 8.8
23 | H[Aib]QGTFTSDVSSYLDGQAAKEFVAWLLKGC (ends and bridges not checked) [triple agonist of SEQ ID NO: 6] | < 0.1
24 | Y[Aib]QGTFTSDYSKYLDEKRAKEFVQWLLDHHCSSGQPPPS (bridge 16-20) [triple agonist of SEQ ID NO: 43] | 88.4
25 | [Acetyl(2-(4-imidazolyl))][Aib]QGTFTSDYSIAMDEKHCKDFVNWLLNTK (bridge 16-20; ends not checked) [triple agonist of SEQ ID NO: 60] | < 0.1
26 | H[Aib]QGTFTSDYSKYLDEKRQKEFVQWLLDTC (bridge 16-20; ends not checked) [triple agonist of SEQ ID NO: 52] | 7.5
27 | Y[Aib]QGTFTSDYSKYLDEKRAKEFVQWLLDHHPSSGQPPPSC (bridge 16-20) [triple agonist of SEQ ID NO: 42] | 206
28 | H[Aib]QGTFTSDVSKYLDGQAAKEFVAWLLKGC (ends and bridges not checked) [triple agonist of SEQ ID NO: 7] | < 0.1
29 | [Acetyl(2-(4-imidazolyl))][Aib]QGTFTSDYSIAMDEIACKDFVNWLLNTK (bridge 16-20; ends not checked) [triple agonist of SEQ ID NO: 61] | < 0.1
30 | H[Aib]QGTFTSDVSSYLDGQAAKEFIAWLVKGC [triple agonist of SEQ ID NO: 1] | < 0.1
31 | H[Aib]QGTFTSDYSKYLDEKRQKEFVQWLLNTKC (bridge 16-20; ends not checked) [triple agonist of SEQ ID NO: 58] | 2.6
32 | H[Aib]EGTFTSDYSIAMDEIHQKDFVNWLLAQC (bridge 16-20) [triple agonist of SEQ ID NO: 53] | 8.4

target: T1, human GIP receptor; assay: cell-based or functional assay

Row | Binder | In vitro activity (%) vs. GIP, cAMP EC50 [%]
33 | H[Aib]QGTFTSDVSSYLLGQQQKEFIAWLVKGC [triple agonist of SEQ ID NO: 4] | < 0.1
34 | H[Aib]QGTFTSDVSSYLLGQQQKEFIAWLVKGGGPSSGAPPPSC [triple agonist of SEQ ID NO: 5] | < 0.1
35 | H[Aib]QGTFTSDYSIAMDEIHQKDFVNWLLNTC (bridge 16-20; ends not checked) [triple agonist of SEQ ID NO: 57] | 0.3
36 | Y[Aib]QGTFTSDYSKYLDECRAKDFVQWLLDHHPSSGQPPPS (bridge 16-20; ends not checked) [triple agonist of SEQ ID NO: 66] | 17.2
37 | H[Aib]QGTFTSDYSKCLDEKRAKEFVQWLLDHHPSSGQPPPS (bridge 16-20; ends not checked) [triple agonist of SEQ ID NO: 65] | 11.6
38 | Y[Aib]QGTFTSDYSKCLDEKAAKEFVQWLLDHHPSSGQPPPS (bridge 16-20; ends not checked) [triple agonist of SEQ ID NO: 68] | 107
39 | H[Aib]QGTFTSDVSSYLDGQAAKEFVAWLLKGC (ends and bridges not checked) [triple agonist of SEQ ID NO: 6] | < 0.1
40 | Y[Aib]QGTFTSDYSKYLDEKRAKEFVQWLLDHHCSSGQPPPS (bridge 16-20) [triple agonist of SEQ ID NO: 43] | 3.7
41 | [Acetyl(2-(4-imidazolyl))][Aib]QGTFTSDYSIAMDEKHCKDFVNWLLNTK (bridge 16-20; ends not checked) [triple agonist of SEQ ID NO: 60] | 8.2
42 | H[Aib]QGTFTSDYSKYLDEKRQKEFVQWLLDTC (bridge 16-20; ends not checked) [triple agonist of SEQ ID NO: 52] | 0.3
43 | Y[Aib]QGTFTSDYSKYLDEKRAKEFVQWLLDHHPSSGQPPPSC (bridge 16-20) [triple agonist of SEQ ID NO: 42] | 7.8
44 | H[Aib]QGTFTSDVSKYLDGQAAKEFVAWLLKGC (ends and bridges not checked) [triple agonist of SEQ ID NO: 7] | < 0.1
45 | [Acetyl(2-(4-imidazolyl))][Aib]QGTFTSDYSIAMDEIACKDFVNWLLNTK (bridge 16-20; ends not checked) [triple agonist of SEQ ID NO: 61] | 2.8
46 | H[Aib]QGTFTSDVSSYLDGQAAKEFIAWLVKGC [triple agonist of SEQ ID NO: 1] | < 0.1
47 | H[Aib]QGTFTSDYSKYLDEKRQKEFVQWLLNTKC (bridge 16-20; ends not checked) [triple agonist of SEQ ID NO: 58] | 0.2
48 | H[Aib]EGTFTSDYSIAMDEIHQKDFVNWLLAQC (bridge 16-20) [triple agonist of SEQ ID NO: 53] | 1.3
